Experiment [1] deals with WipA411 (WipA 33-411) (Legionella pneumophila) (UniProt Q5ZS02). The experiment is described as follows: SEC-MALS. Background: In gel filtration, larger molecules generally elute earlier.
For experiment [2], the target named is WipA (IcmW-interacting protein A; lpg2718), full-length protein (Legionella pneumophila) (UniProt Q5ZS02). Briefly: SEC-MALS.

In article PMC5454105 one finds stoichiometry N data, which are given here for two substances.

As a reminder, the stoichiometry N is the number of molecules, sites or subunits per partner or assembly.

Turning to “WipA411 (WipA 33-411) (from UniProt Q5ZS02 33-411) (domain or fragment)”, the stoichiometry N in experiment [1] amounted to 2.
In experiment [2], “WipA (IcmW-interacting protein A; lpg2718), full-length protein (from UniProt Q5ZS02 1-520) (enzyme)” returned a stoichiometry N of 2.
